Results on four molecules are retold here after patent US20050170334A1 (published 2005).

Sequences and labels used below:
T1: OVA (UniProt P01012 2-386)
T1 sequence: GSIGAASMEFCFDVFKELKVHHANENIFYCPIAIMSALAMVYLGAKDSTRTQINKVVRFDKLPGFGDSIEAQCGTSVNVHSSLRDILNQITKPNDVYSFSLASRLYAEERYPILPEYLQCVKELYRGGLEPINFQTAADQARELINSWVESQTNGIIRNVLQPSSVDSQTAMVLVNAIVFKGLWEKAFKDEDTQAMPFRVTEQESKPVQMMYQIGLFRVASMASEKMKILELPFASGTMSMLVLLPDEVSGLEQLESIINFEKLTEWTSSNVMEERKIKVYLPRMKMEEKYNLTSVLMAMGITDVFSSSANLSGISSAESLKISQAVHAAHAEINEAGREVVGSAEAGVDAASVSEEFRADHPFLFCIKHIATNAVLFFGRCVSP

B1: human anti-M2 antibody C40 (antibody, V domains shown)
VH: QLQLQESGPGLVKPSETLSLTCTVSGGSISSSFYYCGWIRQPPGKGLEWIGSIYYRGSTYYNPSLKSRVTISVDTSKNQFSLKLSSVTAADTAVYYCARRVTMVRGVKGDYFDYWGQGTLVTVSS
VL: DIQMTQSPSSLSASVGDRVTITCRASQGISSWLAWYQQKPEKVPKSLIYAASSLQSGVPSRFSGSGSGTDFTLTISSLQPEDFATYYCQQYNYYPLTFGGGTKVEIKR
B2: C40G1 (antibody, V domains shown)
VH: B1 VH
VL: B1 VL
B3: L66 (antibody, V domains shown)
VH: EVQLVESGGGVVRPGGSLRLSCAASGFTFDDYGMSWVRQAPGKGLEWVSGINWNGGSTGYADSVKGRFTISRDNAKNSLYLQMNSLRAEDTALYYCARDRVTMVRGVIMDYYGMDVWGQGTTVTVSS
VL: QTVVTQEPSLTVSPRGTVTLTCSSSTGAVTSGYYPGWFQLKPGQAPMSLIYSARKKHSWTPARFSGSLLGGKAALTLSGVQPEDEAEYYCLLYYGGAYVFGTGTKVTVLG
B4: N547 (antibody, V domains shown)
VH: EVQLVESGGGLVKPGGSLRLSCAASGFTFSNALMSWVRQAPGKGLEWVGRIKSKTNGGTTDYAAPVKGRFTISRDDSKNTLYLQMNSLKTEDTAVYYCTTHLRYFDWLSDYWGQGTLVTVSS
VL: QSVLTQPPSMSAAPGQKVTISCSGSSSNIGNNYISWYQQLPGTAPKVLIYDNNKRPSGIPDRFSGSKSGTSATLGITGLQTGDEADYYCGSWDSSLSAGVFGTGTKVTVLG

T2 sequence (P02769 25-607 limits assumed): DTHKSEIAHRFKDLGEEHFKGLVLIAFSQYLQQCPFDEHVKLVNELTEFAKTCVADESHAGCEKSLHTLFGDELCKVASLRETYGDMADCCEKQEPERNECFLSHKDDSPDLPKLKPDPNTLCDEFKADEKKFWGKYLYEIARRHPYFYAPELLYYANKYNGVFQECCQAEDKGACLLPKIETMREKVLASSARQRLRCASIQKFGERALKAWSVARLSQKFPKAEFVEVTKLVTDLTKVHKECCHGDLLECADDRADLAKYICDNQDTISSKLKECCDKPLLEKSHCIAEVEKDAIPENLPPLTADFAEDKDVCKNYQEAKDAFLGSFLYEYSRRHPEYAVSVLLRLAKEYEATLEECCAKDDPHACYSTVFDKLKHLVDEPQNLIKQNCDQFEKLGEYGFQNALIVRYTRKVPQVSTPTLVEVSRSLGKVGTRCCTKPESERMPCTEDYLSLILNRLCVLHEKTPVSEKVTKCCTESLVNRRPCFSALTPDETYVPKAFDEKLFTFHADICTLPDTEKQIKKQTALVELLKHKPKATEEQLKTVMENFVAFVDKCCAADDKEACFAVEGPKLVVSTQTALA

One experiment addresses T2, BSA (UniProt P02769 25-607).
T2 construct: carrier for immunization
The experiment in a line: ELISA.
For the molecule B1, the binding result is listed as “no binding (tested: OD450 below 0.1)”.

Take B2: the binding result is given as “no binding (tested: OD450 below 0.1)”.

Consider B3, for which the binding result was “no binding (tested: OD450 below 0.1)”.

For the molecule B4, the binding result was “no binding (tested: OD450 below 0.1)”.

The next experiment deals with T1, OVA. The experiment in a line: ELISA.
Turning to B1, the binding result is “no binding (tested: OD450 below 0.1)”.

Consider B2, for which the binding result is listed as “no binding (tested: OD450 below 0.1)”.

Turning to B3, the binding result is on record as “no binding (tested: OD450 below 0.1)”.

Regarding B4, the binding result was “no binding (tested: OD450 below 0.1)”.
